How the values were obtained:
[1] = Single-dose short-term study in female athymic nude mice: body and tissue weights, serum chemistry; type: in vivo
Experimental: Short-term effects of the FR1-H7 antibody on serum levels of insulin, leptin, glucose, and triglycerides were examined by injecting 4 mg/kg antibody or control vehicle into female athymic nude mice. Samples were collected and evaluated before treatment and 6, 24, and 48 hours after treatment. Alanine aminotransferase (ALT), […], blood urea nitrogen (BUN), total serum proteins, and serum albumin levels were measured using serum samples taken 48 hours after treatment. The mice were sacrificed and weights of their left parametrial fat pad, left tibialis anterior muscle, left posterior liver lobe, and spleen were also taken.

[2] = Body weight in C57 black mice; type: in vivo; details: after 4 treatments
Experimental: The antibodies weight-reducing effects on other strains of mice, C57 black mice and db/db mice were tested (The Jackson Laboratory, Bar Harbor, Me.). The C57 mice were injected with 0.8 mg/kg, 4 mg/kg, and 40 mg/kg antibody and saline on a Monday, Wednesday, Friday, and following Monday rotation schedule with body weights being measured before each injection and on day 9.

B1: FR1-H7: human monoclonal antibody from phage Fab library, specific for FGFR-1(IIIb) and/or FGFR-1(IIIc), and/or FGFR-4(IIIc); VH/VL SEQ ID NOS:7, 8 (antibody, listed as Homo sapiens)
VH: MAEVQLVQSGAEVKKPGASVKVSCKVSGYTFTDYYMHWVQQAPGKGLEWMGLVDPEDGETIYAEKFQGRVTITADTSTDTAYMELSSLRSEDTAVYYCARDDYMDVWGKGTLVTVSSASTKGP
VL: LETTLTQSPDTLSLSPGEGATLSCRASQSVSGSALAWYQQKPGQAPRLLIYDASSRATGVPDRFSGSGSGADFSLTISRLEPEDFAVYSCQQYGSSPLTFGPGTKVDVKRTVAAPSVFIFPPSDEQLKSGTASVVCLLNNFYPREAKVQWKVD
**Q.** With B1 as the molecule, how does the serum insulin level ([1]; single 4 mg/kg) read?
**A.** The serum insulin level was “significantly reduced”.

**Q.** What about the serum leptin level ([1]; single 4 mg/kg) of the same molecule?
**A.** Its serum leptin level is “significantly reduced”.

**Q.** And the serum triglycerides level ([1]; single 4 mg/kg)?
**A.** The serum triglycerides level was “significantly reduced”.

**Q.** And the “reduction of averaged body weight compared to control groups” value ([1]; single 4 mg/kg s.c., 48 hours)?
**A.** The value was “approximately 6%”.

**Q.** And the “weight reduction of parametrial fat pad” value ([1]; single 4 mg/kg s.c., 48 hours)?
**A.** Its value is “approximately 60%”.

**Q.** And the “weights of muscle, liver, and spleen” value ([1]; single 4 mg/kg s.c., 48 hours)?
**A.** The value was “appear to be normal”.

**Q.** What about the “levels of ALT, CPK, BUN, total serum proteins, and serum albumin versus control” value ([1]; single 4 mg/kg, 48 hours) of the same molecule?
**A.** Its value is “no significant differences”.

**Q.** And the serum glucose level ([1]; single 4 mg/kg, 48 hours after treatment)?
**A.** The serum glucose level was “did not affect”.

**Q.** And the “weight reduction compared to the starting weights” value ([2]; 0.8 mg/kg)?
**A.** The value was “approximately 5%”.

**Q.** And the “weight reduction compared to the starting weights” value ([2]; 4 mg/kg)?
**A.** The value was about 16%.

**Q.** And the “weight reduction compared to the starting weights” value ([2]; 40 mg/kg)?
**A.** Its value is about 16%.

— US8263074B2, “Fibroblast growth factor receptor-1 inhibitors and methods of treatment thereof” (ImClone LLC, priority 2003, dated 2012)
